Among the data in paper PMC6422494 are molar ratio bound, percent lower than WT values, retold here.

The assay concerns the target GST-stx-1A (syntaxin-1A, GST fusion, immobilised on glutathione-sepharose beads) (UniProt P32851). As to the kind of experiment: pull-down; GST-stx-1A immobilised on glutathione-sepharose beads; one prey protein (5 µM), 20 hr, 4°C; 100 mM NaCl, 20 mM Tris, 1 mM DTT, 1 mM EDTA, 0.5% Triton X-100, pH 7.4; four washes; SDS-PAGE, Coomassie, molar retention ratio by densitometry.
UniProt P32851, sequence (P32851 1-262): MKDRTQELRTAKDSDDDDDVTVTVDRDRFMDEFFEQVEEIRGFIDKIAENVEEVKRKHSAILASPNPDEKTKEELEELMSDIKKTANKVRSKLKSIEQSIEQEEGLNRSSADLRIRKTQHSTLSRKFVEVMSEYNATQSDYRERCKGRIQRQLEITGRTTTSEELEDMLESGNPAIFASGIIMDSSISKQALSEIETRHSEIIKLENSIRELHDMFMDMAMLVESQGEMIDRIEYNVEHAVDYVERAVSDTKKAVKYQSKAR

“SN25 L^GGS (6xHis-tagged, recombinant; whole linker aa 83-141 substituted by a flexible G/S peptide) (from UniProt P60881-2 1-82; P60881-2 142-206) (natural protein)”: the molar ratio bound, percent lower than WT was 50 % lower.
